Values quoted from earlier work as cited in patent US7744870B1, “ST receptor binding compounds and methods of using the same” (Thomas Jefferson University, priority 1993, dated 2010).
Ends that are not written are not given here.

How the values were obtained:
ST receptor = biological target: T1, ST receptor (Homo sapiens, UniProt P25092); conditions: reported in cited literature; cited from earlier work
T1 construct: a preparation of ST receptors (e.g. intestinal membranes from rat intestine, human intestine, T84 cells); from tissue; host or cells: human intestinal membranes
T1 sequence (P25092 24-1073): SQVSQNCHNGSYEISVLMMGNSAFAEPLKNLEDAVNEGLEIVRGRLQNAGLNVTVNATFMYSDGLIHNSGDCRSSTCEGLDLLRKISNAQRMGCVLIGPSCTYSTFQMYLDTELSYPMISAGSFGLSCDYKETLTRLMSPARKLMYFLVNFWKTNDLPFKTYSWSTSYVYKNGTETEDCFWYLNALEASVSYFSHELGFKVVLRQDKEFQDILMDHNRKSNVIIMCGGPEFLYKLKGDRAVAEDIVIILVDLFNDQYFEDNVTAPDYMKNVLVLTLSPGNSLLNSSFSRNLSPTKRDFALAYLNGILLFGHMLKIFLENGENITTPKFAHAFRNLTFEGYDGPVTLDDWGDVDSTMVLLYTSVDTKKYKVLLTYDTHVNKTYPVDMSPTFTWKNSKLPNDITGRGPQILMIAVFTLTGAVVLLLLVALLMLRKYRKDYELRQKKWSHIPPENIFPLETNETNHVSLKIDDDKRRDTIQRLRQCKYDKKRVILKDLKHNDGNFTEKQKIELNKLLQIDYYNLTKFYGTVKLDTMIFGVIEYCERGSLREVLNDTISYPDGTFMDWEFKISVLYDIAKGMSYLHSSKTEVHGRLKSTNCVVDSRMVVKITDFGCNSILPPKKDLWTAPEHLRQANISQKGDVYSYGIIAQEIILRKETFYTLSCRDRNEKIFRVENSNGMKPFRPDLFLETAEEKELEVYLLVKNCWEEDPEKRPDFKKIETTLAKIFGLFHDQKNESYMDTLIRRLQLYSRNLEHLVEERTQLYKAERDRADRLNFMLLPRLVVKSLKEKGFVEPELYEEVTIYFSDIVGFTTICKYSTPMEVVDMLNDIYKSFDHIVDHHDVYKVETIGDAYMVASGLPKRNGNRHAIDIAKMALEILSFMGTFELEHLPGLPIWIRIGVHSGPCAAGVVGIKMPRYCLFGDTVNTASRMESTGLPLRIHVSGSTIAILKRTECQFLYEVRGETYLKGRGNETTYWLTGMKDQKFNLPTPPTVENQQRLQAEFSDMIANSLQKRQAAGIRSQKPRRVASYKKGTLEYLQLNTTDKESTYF

guanylate cyclase = guanylate cyclase (Homo sapiens, UniProt P25092); conditions: relative to native ST; cited from earlier work
Chain of guanylate cyclase (P25092 24-1073): as above

Substance	binds to the ST receptor (ST receptor)	activates guanylate cyclase at a level less than native ST (guanylate cyclase)
SEQ ID NO:48: 18 amino acid peptide derived from Y. enterocolitica (SSDWDCCDVCCNPACAGC; listed as Yersinia enterocolitica)	binds to the ST receptor	–
SEQ ID NO:47: 16 amino acid peptide derived from V. cholerae (IDCCICCNPACFGCLN; listed as Vibrio cholerae)	binds to the ST receptor	–
guanylin (PGTCEICAYAACTGC; ends and bridges not checked; cysteine pairing not given here; UniProt Q02747 101-115, looked up)	binds to ST receptors	10- to 100 fold
